Reference: patent US20190076400A1 (PROTAGONIST THERAPEUTICS, published 2019)
Square brackets hold non-standard residues; d marks the D form. Dmt = Cc1cc(O)cc(C)c1C[C@H](N)C(=O)O; β3hF = N[C@H](CC(=O)O)Cc1ccccc1; Sar = CNCC(=O)O

How the values were obtained:
Experiment in all cases: cell-based or functional assay
[1] = biological target: T1, µ-opioid receptor (MOR), Human-ORPM1 (human, UniProt P35372 1-400)
[2] = biological target: T2, δ-opioid receptor (DOR), Human-ORPD1 (human, UniProt P41143 1-372)
T2 sequence (P41143 whole entry, stated change not applied): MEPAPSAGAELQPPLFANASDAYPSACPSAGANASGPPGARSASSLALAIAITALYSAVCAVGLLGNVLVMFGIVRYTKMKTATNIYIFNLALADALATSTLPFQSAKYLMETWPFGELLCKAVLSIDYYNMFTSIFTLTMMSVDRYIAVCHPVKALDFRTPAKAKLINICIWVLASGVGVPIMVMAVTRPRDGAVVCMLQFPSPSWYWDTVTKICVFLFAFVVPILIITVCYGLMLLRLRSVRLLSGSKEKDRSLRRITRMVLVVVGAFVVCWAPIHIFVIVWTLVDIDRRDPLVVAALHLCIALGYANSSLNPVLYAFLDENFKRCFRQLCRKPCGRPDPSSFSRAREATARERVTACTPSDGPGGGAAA

[3] = biological target: T1, µ-opioid receptor (MOR), Human-ORPM1; remark: listed apart in the source
[4] = biological target: T2, δ-opioid receptor (DOR), Human-ORPD1; remark: listed apart in the source

T1 sequence (P35372 whole entry): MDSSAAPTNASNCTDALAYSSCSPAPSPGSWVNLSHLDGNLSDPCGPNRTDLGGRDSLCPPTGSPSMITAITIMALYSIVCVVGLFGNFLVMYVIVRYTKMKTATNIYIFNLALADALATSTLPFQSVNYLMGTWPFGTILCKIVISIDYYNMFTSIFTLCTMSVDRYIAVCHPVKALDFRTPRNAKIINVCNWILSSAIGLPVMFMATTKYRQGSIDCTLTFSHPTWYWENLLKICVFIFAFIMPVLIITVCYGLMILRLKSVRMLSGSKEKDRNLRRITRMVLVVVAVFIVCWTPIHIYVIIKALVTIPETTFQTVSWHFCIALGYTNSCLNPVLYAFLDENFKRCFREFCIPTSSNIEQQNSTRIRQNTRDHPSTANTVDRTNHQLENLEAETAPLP

B1: H-DMT-a-Ala-bhF-Sar-NH2 (peptide)
peptide: H-[Dmt][dA]A[β3hF][Sar]-NH2
SMILES: Cc1cc(O)cc(C)c1C[C@H](N)C(=O)N[C@H](C)C(=O)N[C@@H](C)C(=O)N[C@H](CC(=O)N(C)CC(N)=O)Cc1ccccc1
≤ 1 nM: MOR cAMP (EC50 nM) [1] | DOR cAMP (EC50 nM) [2] | MOR EC50 [3] | DOR EC50 [4]
